Data published in the RNAGym collection of RNA variant scans (doi:10.7554/elife.80360).

B1: Twister Ribozyme (parent)
chain: AACACUGCCAAUGCCGGUCCCAAGCCCGGAUAAAAGUGGAGGGGGCGG

Variants of: B1
Experiment: self-cleavage, relative activity (ratio to wild type); higher = more cleavage; co-transcriptional

| Variant | self-cleavage |
| --- | --- |
| AACACUGCCAAUGCCGGGCCCAAGCCCGGAUCAAAGUGGAGGGGGCGG | 0.0661 |
| AACACUGCCAAUCCCGGUCCCACGCCCGGAUAAAAGUGGAGGGGGCGG | 0.0801 |
| AACACUGCCAAUGCCGGACCUAAGCCCGGAUAAAAGUGGAGGGGGCGG | 0.0595 |
| AACACUGCCAAUGCCGGUCCCAAGGCCGGAUAAAAGUGGAGGGGGAGG | 0.148 |
| AACACUCCCAAUGCCGGUCCCAAGCCCGGAUAAAAGUUGAGGGGGCGG | 0.071 |
| AACACUGCCCAUGGCGGUCCCAAGCCCGGAUAAAAGUGGAGGGGGCGG | 0.289 |
| AACACUGCCAAUGCCGGUCCCACGCCCGCAUAAAAGUGGAGGGGGCGG | 0.0814 |
| AAAACUGCCAAUGCCGGUCCCAAGCGCGGAUAAAAGUGGAGGGGGCGG | 0.0639 |
| AACACUGCCAAUGCCGGUAGCAAGCCCGGAUAAAAGUGGAGGGGGCGG | 0.093 |
| AACACUGCCAAUGCCGGUCCCAAGCCCUGAUAAAAGUGGAUGGGGCGG | 0.419 |
| AACACUGCCAAUGCCGGUCCCACGCCCGGAUAGAAGUGGAGGGGGCGG | 0.0917 |
| AACACUGCCAAUGCCGGUCCCAAGCCCGGAUAAGAGUGGAGGGGGCGG | 0.874 |
| AACACUGGCAAUGCCGGUCCCAAGCCCGGAUAAAAGUCGAGGGGGCGG | 0.145 |
| UACACUGCCAAUGCUGGUCCCAAGCCCGGAUAAAAGUGGAGGGGGCGG | 0.0337 |
| AACACUGUCAAUGCCGGUCCCAAGCCCAGAUAAAAGUGGAGGGGGCGG | 0.446 |
| AACACUGCCAAUGCCGGUCUCAAGCCCGGAUAAUAGUGGAGGGGGCGG | 0.404 |
| AACACUGCCAAUUCCGGUCCCAACCCCGGAUAAAAGUGGAGGGGGCGG | 0.0723 |
| AACACUGCCAAUUCCGGUCCCAAGCCCGGGUAAAAGUGGAGGGGGCGG | 0.926 |
| AACACUGUCAAUGCCGGUCCCAAGCCCGGAUAAAAGUGGAGGGCGCGG | 0.598 |
| AACACUGCCAGUGCCGGGCCCAAGCCCGGAUAAAAGUGGAGGGGGCGG | 0.0264 |
| AACACUUCUAAUGCCGGUCCCAAGCCCGGAUAAAAGUGGAGGGGGCGG | 0.0542 |
| AACACUACCAAUGCCGGUCCUAAGCCCGGAUAAAAGUGGAGGGGGCGG | 0.103 |
| AACACUGCCAAUGCCCGCCCCAAGCCCGGAUAAAAGUGGAGGGGGCGG | 0.114 |
| AACACUGCCAAUGCCGGCCCCAAGCCCGGAUAAAAGCGGAGGGGGCGG | 0.0756 |
| AACACUGCCAAUGCCGGCCCCAAGCCCGGAUAAAAAUGGAGGGGGCGG | 0.158 |
| AGCACUGCCAAUGCCGGUCCCAAGCCCGGAUAAAAGUGGAGCGGGCGG | 0.157 |
| AACACUGCCAAUGCCGGUCCCAAGCCCGGAUAAAAGUGGAGGGGAAGG | 0.714 |

| Variant | self-cleavage |
| --- | --- |
| AACACUGCCAAUGCCGGUCCCCAGCCCGGAUAAAUGUGGAGGGGGCGG | 0.962 |
| AACAUUGCCAAUGCCGGUCCCAAGCCUGGAUAAAAGUGGAGGGGGCGG | 0.483 |
| AACACUGCCGAUGCCGGUCCAAAGCCCGGAUAAAAGUGGAGGGGGCGG | 0.137 |
| AACACUGCCAAUGCCGGUCCCAAGCCCGGAUACAAGUGGAGGGGCCGG | 0.531 |
| AACACUGCCAAUGCCGGUCCCAAGCCCGGAUACAAGUGGUGGGGGCGG | 0.1 |
| AACACUGCCAAUGCCGGUCCCAAGCCCGGAUAAAAGUCGAGGGCGCGG | 0.853 |
| AACACUGCCAAUGCGGGUCCCAAGCCCGGAUAAAAGAGGAGGGGGCGG | 0.0636 |
| AAGACUUCCAAUGCCGGUCCCAAGCCCGGAUAAAAGUGGAGGGGGCGG | 0.057 |
| AACACUGCCUAUGCCGGACCCAAGCCCGGAUAAAAGUGGAGGGGGCGG | 0.546 |
| AACACAGCCAAUCCCGGUCCCAAGCCCGGAUAAAAGUGGAGGGGGCGG | 0.072 |
| AACACUGCCAAUGCCGGUCCCAAGCCCGGAUAAAAGUGGCGGGGGCUG | 0.228 |
| AACACUGGCAAUGCCGGUCCCAAGCCCGGAUGAAAGUGGAGGGGGCGG | 0.275 |
| AACACUGCCAAUGCGGGUCCCAAGCCCGGAUAAAAGUGGAGUGGGCGG | 0.084 |
| AACACUCCCAAUGCCGGUCCCAAGCCCGCAUAAAAGUGGAGGGGGCGG | 0.0533 |
| GACACUGCCAAUGCCGGUCCCAAGCCCGGAUAAAAGUGGACGGGGCGG | 0.186 |
| AACACUGCCAAUGCCGGUCCCAAGCUCGGAUAAAAGUGGAGGGGGCCG | 0.181 |
| AACACUGCCAAUGCCGGUCUCAAGCCCGGAUCAAAGUGGAGGGGGCGG | 0.758 |
| AACACUGCCAAUGCCGGUCCCAAGCCCUGAUAAAAGUGGAGUGGGCGG | 0.238 |
| AACACUGCCAAUGCCGGUCCCAAGCCCGGAUAAAAGUAGAGGGGUCGG | 0.737 |
| AACACUGCCAAUGCCGGUCCCAAGCCCGGAUAAAAUUCGAGGGGGCGG | 0.286 |
| AACACUGCCAAUGCCGGUCCCAAGCCCGAAUAAAAGUGGAGGGGACGG | 0.724 |
| AACUCUGCCAAUGCCGGUCCCAAGCCUGGAUAAAAGUGGAGGGGGCGG | 0.0803 |
| AACACUGCCAAUGCCGGUCCCAAGCCCGUAUAAAAGUAGAGGGGGCGG | 0.775 |
| CACAGUGCCAAUGCCGGUCCCAAGCCCGGAUAAAAGUGGAGGGGGCGG | 0.227 |
| AACACUGCCAAUGCUUGUCCCAAGCCCGGAUAAAAGUGGAGGGGGCGG | 0.31 |
| AACACGGCCAAUGCCGGUCCCAAGCCCGGAUAAAAGUGGAGUGGGCGG | 0.0829 |
| AACAUUGCCAAUGCCGGUCCCAAGCCCGGAUAAAAGCGGAGGGGGCGG | 0.283 |
